Experiment [1] has as its target T1, mouse SIRPβ1 on CHO cells (mouse).
T1 construct: Whole entry
T1 chain: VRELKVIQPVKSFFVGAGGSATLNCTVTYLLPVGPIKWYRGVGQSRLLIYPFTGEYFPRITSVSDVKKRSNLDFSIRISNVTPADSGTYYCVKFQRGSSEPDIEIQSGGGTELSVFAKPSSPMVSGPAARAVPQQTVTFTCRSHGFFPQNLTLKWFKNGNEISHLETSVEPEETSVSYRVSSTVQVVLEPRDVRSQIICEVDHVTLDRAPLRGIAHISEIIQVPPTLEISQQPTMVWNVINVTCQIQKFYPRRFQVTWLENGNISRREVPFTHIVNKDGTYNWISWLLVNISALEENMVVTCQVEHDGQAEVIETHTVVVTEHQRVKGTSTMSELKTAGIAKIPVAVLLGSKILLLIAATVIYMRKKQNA
Kind of experiment: flow cytometry. (In general: Flow cytometry measures light scatter and fluorescence of single cells or particles in a stream.)

The target of experiment [2] is T2, human SIRPα on cells (human, UniProt P78324 31-504).
T2 construct: Whole entry
Kind of experiment: flow cytometry.

The target of experiment [3] is T3, human SIRPα domain 1 (D1) Fc fusion (human, UniProt P78324 32-149).
T3 construct: also called human SIRPα D1-Fc; Human SIRPα Fc; not shown: C-terminal human IgG1 Fc
The experiment is described as follows: Octet, IgG avid. On the technique in general: BLI is a label-free optical method that tracks binding on a fibre tip over time.

In experiment [4] the target is T4, Soluble, human SIRPβ1-Fc isoform 1 (O00241) (human, UniProt O00241 30-371, limits assumed).
T4 construct: Whole entry named; also called human SIRPβ1 isoform 1
T4 sequence (O00241 30-371 limits assumed, one chain of several): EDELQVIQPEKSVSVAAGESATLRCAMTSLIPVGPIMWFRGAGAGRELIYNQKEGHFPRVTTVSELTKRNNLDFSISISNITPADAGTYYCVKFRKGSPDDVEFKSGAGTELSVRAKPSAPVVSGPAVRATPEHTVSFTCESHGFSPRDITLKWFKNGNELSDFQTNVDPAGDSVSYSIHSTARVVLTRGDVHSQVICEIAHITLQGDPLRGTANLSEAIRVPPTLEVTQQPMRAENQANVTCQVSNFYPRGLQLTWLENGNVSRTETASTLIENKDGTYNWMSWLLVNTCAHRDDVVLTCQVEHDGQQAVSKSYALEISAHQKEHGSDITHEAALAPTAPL
Kind of experiment: ELISA, antigen coated. For orientation: An ELISA detects its analyte on a solid surface through an enzyme-linked reagent.
Description: Recombinant antigen based on the sequence of SIRPβ1 isoform 1 was used for selecting anti-SIRPβ1 antibodies from yeast library pools. To ascertain if the selected anti-SIRPβ1 antibodies cross-reacted with other isoforms of human SIRPβ1 or with cynomolgus SIRPβ1, recombinant antigens based on human SIRPβ1 isoform 3 sequence and cynomolgus SIRPβ1 isoform 1 sequence were produced by transient transfection in HEK293 cells. Purified, Fc-tagged recombinant proteins were adsorbed onto 96-well plates at 1 μg/mL overnight at 4° C. Plates were subsequently washed with PBS+0.05% Tween-20 and blocked with 1% BSA+PBS for 2 hours at room temperature. Antibodies diluted in blocking buffer at 1 μg/mL were added to wells, serially diluted, and allowed to bind antigen overnight at 4° C. The following day, the primary antibodies were removed and anti-human kappa light chain antibody conjugated to horseradish peroxidase diluted 1:10,000 in blocking buffer were added to wells and incubated for 1 hour at room temperature. Plates were washed with PBS+0.05% Tween-20 and 100 μL of TMB substrate solution was added to wells to generate a colorimetric signal proportional to amount of anti-SIRPβ1 antibody bound to antigen. Once the reaction reached an appropriate color intensity, 100 μL of Stop solution was added to quench the enzyme.
(§1) Eight anti-SIRPβ1 antibodies (four parental antibodies and four corresponding affinity matured antibodies) were selected for analysis.

Experiment [5] has as its target T5, human SIRPβ1 isoform 1 on cells (human, UniProt O00241 30-398).
T5 construct: On CHO cells (low level), on BWZ/BW5147.G.1.4 cells (reporter cells co-express human DAP12) or on primary human myeloid cells; also called huSIRPβ1; BWZ-huSIRPβ1
The experiment is described as follows: cell binding titration; target not given.

Experiment [6] addresses T5, human SIRPβ1 isoform 1 on cells. Kind of experiment: flow cytometry.
Protocol: (§2) Cells were then washed twice and incubated in 100 ul FACS buffer containing 0.5 μg/ml PE-conjugated secondary antibody for 30 minutes on ice. Cells were washed twice in cold FACS buffer and acquired on a BD FACS Canto. Data analysis and calculation of mean fluorescence intensity (MFI) values or 00 positive cells was performed with FlowJo (TreeStar) software version 10.0.7.
(§3) Given the high sequence similarity between receptors of the SIRPβ family, anti-SIRPβ1 antibodies were also screened for cross-reactivity to human SIRPα.
For experiment [7], the target named is T1, mouse SIRPβ1 on CHO cells. Kind of experiment: flow cytometry.
Protocol: as §2, §3
Experiment [8] addresses T2, human SIRPα on cells. The experiment is described as follows: flow cytometry. This is another data set of the same source.
Protocol: as §2, §3
In experiment [9] the target is T6, human SIRPβ1-Fc isoform 3 (Q5TFQ8) (human, UniProt Q5TFQ8 30-371, limits assumed).
T6 construct: Whole entry named; made in HEK293 cells; also called human SIRPβ1 isoform 3
T6 sequence (Q5TFQ8 30-371 limits assumed, one chain of several): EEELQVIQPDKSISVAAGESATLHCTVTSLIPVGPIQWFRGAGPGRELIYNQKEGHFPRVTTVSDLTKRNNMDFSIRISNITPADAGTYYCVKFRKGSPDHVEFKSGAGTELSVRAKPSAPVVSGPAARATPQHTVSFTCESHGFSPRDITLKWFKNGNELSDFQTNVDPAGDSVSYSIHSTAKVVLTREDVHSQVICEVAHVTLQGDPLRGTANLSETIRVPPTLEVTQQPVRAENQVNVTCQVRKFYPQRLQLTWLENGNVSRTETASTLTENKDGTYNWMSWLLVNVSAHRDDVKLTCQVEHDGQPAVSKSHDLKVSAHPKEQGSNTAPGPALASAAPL
The experiment is described as follows: ELISA on plate-coated huSirpB-Fc (Q5TFQ8.1), anti-human kappa-HRP, A450.
Protocol: To ascertain if the selected anti-SIRPβ1 antibodies cross-reacted with other isoforms of human SIRPβ1 or with cynomolgus SIRPβ1, recombinant antigens based on human SIRPβ1 isoform 3 sequence and cynomolgus SIRPβ1 isoform 1 sequence were produced by transient transfection in HEK293 cells. Purified, Fc-tagged recombinant proteins were adsorbed onto 96-well plates at 1 μg/mL overnight at 4° C. Plates were subsequently washed with PBS+0.05% Tween-20 and blocked with 1% BSA+PBS for 2 hours at room temperature. Antibodies diluted in blocking buffer at 1 μg/mL were added to wells, serially diluted, and allowed to bind antigen overnight at 4° C. The following day, the primary antibodies were removed and anti-human kappa light chain antibody conjugated to horseradish peroxidase diluted 1:10,000 in blocking buffer were added to wells and incubated for 1 hour at room temperature. Plates were washed with PBS+0.05% Tween-20 and 100 μL of TMB substrate solution was added to wells to generate a colorimetric signal proportional to amount of anti-SIRPβ1 antibody bound to antigen. Once the reaction reached an appropriate color intensity, 100 μL of Stop solution was added to quench the enzyme.
as §1

Experiment [10] has as its target T5, human SIRPβ1 isoform 1 on cells. Kind of experiment: flow cytometry. The source holds these as a separate data set.
Experiment [11] addresses T1, mouse SIRPβ1 on CHO cells. The experiment is described as follows: flow cytometry.
The target of experiment [12] is T2, human SIRPα on cells. The experiment is described as follows: flow cytometry. The source holds these as a separate data set.
Experiment [13] addresses T7, mouse SIRPα on cells (mouse, UniProt P97797 32-513).
T7 construct: whole, on cells
T7 sequence (looked up): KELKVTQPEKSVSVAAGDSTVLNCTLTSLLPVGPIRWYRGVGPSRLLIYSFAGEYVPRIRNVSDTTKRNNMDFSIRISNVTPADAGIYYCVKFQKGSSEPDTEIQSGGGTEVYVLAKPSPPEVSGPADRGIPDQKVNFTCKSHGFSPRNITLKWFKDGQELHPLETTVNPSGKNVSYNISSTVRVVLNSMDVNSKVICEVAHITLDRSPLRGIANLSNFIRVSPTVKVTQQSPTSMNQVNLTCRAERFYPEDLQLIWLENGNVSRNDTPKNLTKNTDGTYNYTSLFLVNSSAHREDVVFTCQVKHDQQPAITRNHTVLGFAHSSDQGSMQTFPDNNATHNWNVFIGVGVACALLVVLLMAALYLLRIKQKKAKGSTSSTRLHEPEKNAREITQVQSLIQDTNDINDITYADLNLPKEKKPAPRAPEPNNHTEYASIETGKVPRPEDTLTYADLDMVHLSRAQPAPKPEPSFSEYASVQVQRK
The experiment is described as follows: flow cytometry.

The target in experiment [14] is T7, mouse SIRPα on cells. Kind of experiment: flow cytometry. The source holds these as a separate data set.
The target in experiment [15] is T8, human SIRPβ1 domain 1 (D1) Fc fusion (human, UniProt O00241 30-148).
T8 construct: Made in HEK293/T cells with a heterologous signal peptide; also called Human SIRPβ1 D1-Fc; Human SIRPβ1-Fc; not shown: C-terminal human IgG1 Fc
T8 sequence (O00241 30-148 limits assumed): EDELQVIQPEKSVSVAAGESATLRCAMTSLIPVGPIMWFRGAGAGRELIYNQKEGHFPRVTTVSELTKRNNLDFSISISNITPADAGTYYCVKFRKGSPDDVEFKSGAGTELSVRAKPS
Kind of experiment: Octet, IgG avid.

The next experiment deals with T9, mouse SIRPα D1-Fc (mouse, UniProt P97797 32-150, limits assumed).
T9 construct: domain: D1
T9 sequence (looked up): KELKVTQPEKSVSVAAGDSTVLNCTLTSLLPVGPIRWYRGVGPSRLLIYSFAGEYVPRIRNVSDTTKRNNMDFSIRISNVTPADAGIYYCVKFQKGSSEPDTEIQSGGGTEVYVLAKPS
Kind of experiment: Octet.

The target of experiment [16] is T2, human SIRPα on cells. The experiment is described as follows: flow cytometry on BWZ cells overexpressing human SIRPα, fluorescent secondary antibody, MFI.
Protocol: (§4) To determine antigen specificity of anti-SIRPβ1 antibodies of the present disclosure, cell-based affinity measurements were performed to ascertain the apparent affinities of affinity-matured anti-SIRPβ 1 antibodies to cell surface-expressed antigen. BW5147.G.1.4 cells, an immortalized mouse T-cell line, were engineered to overexpress human SIRPβ1 (BWZ-huSIRPβ1) or human SIRPα (BWZ-huSIRPα). Jurkat cells, an immortalized human T cell line, endogenously express SIRPγ.
(§5) In these experiments, two antibodies previously described were used as positive controls: antibody 18D5 (an anti-SIRPβ antibody that cross-reacts with SIRPα and SIRPβ) and antibody KWAR23 (an anti-SIRPβ antibody that cross-reacts with SIRPα, SIRPβ, and SIRPγ). These antibodies were recombinantly produced on a human IgG4 backbone. […] Serial dilutions of each of the anti-SIRPβ1 monoclonal antibodies and control antibodies were added to 10⁵ cells and allowed to achieve binding equilibrium at 4° C. After addition of fluorescently-labeled secondary antibody and brief washing steps, MFI values as a function of titrated antibody concentration were recorded via FACS analysis.
(§6) Receptor bound antibodies were detected by staining cells with anti-human IgG PE secondary antibody (Southern Biotech). Curves were fit using nonlinear regression analysis with Graphpad Prism 6 software.
For another experiment, the target named is T10, SIRPγ on Jurkat cells (human, UniProt Q9P1W8 29-387).
T10 construct: whole, on cells
T10 sequence (Q9P1W8 29-387): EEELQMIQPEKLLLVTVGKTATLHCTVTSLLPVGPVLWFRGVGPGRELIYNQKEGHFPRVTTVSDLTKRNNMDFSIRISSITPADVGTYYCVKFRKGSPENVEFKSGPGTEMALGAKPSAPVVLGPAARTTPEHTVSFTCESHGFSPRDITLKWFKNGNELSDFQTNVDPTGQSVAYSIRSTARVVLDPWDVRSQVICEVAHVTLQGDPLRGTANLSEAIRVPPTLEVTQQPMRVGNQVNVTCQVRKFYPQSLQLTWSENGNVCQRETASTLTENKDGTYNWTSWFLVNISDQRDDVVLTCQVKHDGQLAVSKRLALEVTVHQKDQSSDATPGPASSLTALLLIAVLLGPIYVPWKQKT
Kind of experiment: flow cytometry on Jurkat cells (endogenous SIRPγ), fold over isotype (MFI).

The target of experiment [17] is T5, human SIRPβ1 isoform 1 on cells. Kind of experiment: flow cytometry titration, BWZ-huSIRPβ1 cells.
Protocol: as §5
In Table 14 below, EC50 values assign relative affinity by adding increasing concentrations of antibody variants to cells overexpressing SIRPβ 1. Receptor bound antibodies were detected by staining cells with anti-human IgG PE secondary antibody (Southern Biotech). Curves were fit using nonlinear regression analysis with Graphpad Prism 6 software.

Read-outs that look alike come from different tables or passages of the source.

T5 sequence (O00241 30-398): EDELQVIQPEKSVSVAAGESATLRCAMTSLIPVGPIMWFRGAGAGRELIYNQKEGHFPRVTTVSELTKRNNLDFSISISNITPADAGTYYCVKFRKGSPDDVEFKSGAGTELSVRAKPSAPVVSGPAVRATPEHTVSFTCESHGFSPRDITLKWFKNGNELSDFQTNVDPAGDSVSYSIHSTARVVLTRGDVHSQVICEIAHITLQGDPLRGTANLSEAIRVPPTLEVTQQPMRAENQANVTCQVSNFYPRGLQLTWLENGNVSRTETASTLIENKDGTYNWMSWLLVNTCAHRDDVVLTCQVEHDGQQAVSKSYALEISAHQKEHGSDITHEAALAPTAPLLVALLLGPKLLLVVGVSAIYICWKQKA
Protocol for SIRPγ on Jurkat cells: as §4, §5, §6

B1: SB-40-21 (antibody, V domains shown)
VH: QVQLVQSGAEVKKPGASVKVSCKASGYTFTSYYMVWVRQAPGQGLEWMGIINPSSGDTNYAQKFQGRVTMTRDTSISTAYMELSRLRSDDTAVYYCARDTGEYSYSPHGMDVWGQGTTVTVSS
VL: EIVLTQSPATLSLSPGERATLSCRASQSVSSYLAWYQQKPGQAPRLLIYDSSNRATGIPARFSGSGSGTDFTLTISSLEPEDFAVYYCQQRDEHPPWTFGGGTKVEIK
notes: IgG
For B1, the binding result in [1] was “no binding (tested: 1 ug/ml)”; with human SIRPα on cells [2] it was “no binding (tested: 1 ug/ml)”; in experiment [3], “no binding (tested: 100 nM)”. For the same molecule, the EC50 (usually the concentration needed to bring the measured effect to its halfway point) was found to be 0.025 nM in experiment [4] and 0.715 nM in experiment [5]. Besides, the figures for the FOB (in experiment [6]; in [7]; with human SIRPα on cells [8]) were 5 fold over background, 2 fold over background and 1 fold over background, respectively.

B2: SB-1-2 (antibody, V domains shown)
VH: QVQLVESGGGVVQPGRSLRLSCAASGFTFGSFGMNWVRQAPGKGLEWVSAITASGGSTFYADSVKGRFTISRDNSKNTLYLQMNSLRAEDTAVYYCAKDFTEVVGWLGMDVWGQGTTVTVSS
VL: EIVMTQSPGTLSLSPGERATLSCRASQSVSSSYLAWYQQKPGQAPRLLIYGASSRATGIPDRFSGSGSGTDFTLTISRLEPEDFAVYYCQLLGSSPRTFGGGTKVEIK
notes: IgG
With B2, the binding result in experiment [1] is “no binding (tested: 1 ug/ml)”; with human SIRPα on cells [2], “no binding (tested: 1 ug/ml)”; in experiment [3], “no binding (tested: 100 nM)”; in experiment [9] it was “no binding (tested: 1 ug/mL)”. For the same molecule, the EC50 in experiment [4] came out at 0.045 nM; in experiment [5], 0.059 nM. Also, the FOB in experiment [6] amounted to 4 fold over background; in [7], 1 fold over background; with human SIRPα on cells [8] it was 1 fold over background.

B3: SB-2-7 (antibody, V domains shown)
VH: EVQLLESGGGLVQPGGSLRLSCAASGFTFARYGMHWVRQAPGKGLEWVSAISGLAGPTYADSVKGRFTISRDNSKNTLYLQMNSLRAEDTAVYYCARDQTAAAAIWGMDVWGQGTTVTVSS
VL: EVVLTQSPGTLSLSPGERATLSCRASQSVSSSYLAWYQQKPGQAPRLLIYGASSRATGIPDRFSGSGSGTDFTLTISRLEPEDFAVYYCQQSSSHPFTFGGGTKVEIK
notes: IgG
Take B3: the binding result was “no binding (tested: 1 ug/ml)” in [1], “no binding (tested: 1 ug/ml)” with human SIRPα on cells [2], “no binding (tested: 100 nM)” in experiment [3] and “no binding (tested: 1 ug/mL)” in [9]. Further, the EC50 in experiment [4] turned out to be 0.029 nM; in experiment [5], 0.132 nM. Further, the FOB in experiment [6] is 5 fold over background; in [7], 1 fold over background; with human SIRPα on cells [8], 1 fold over background.

B4: SB-8 (antibody, V domains shown)
VH: QVQLQESGPGLVKPSETLSLTCAVSGYSISSGYYWGWIRQPPGKGLEWIGSIYHSGSTYYNPSLKSRVTISVDTSKNQFSLKLSSVTAADTAVYYCARGGAMTPAGMDVWGQGTTVTVSS
VL: EIVMTQSPGTLSLSPGERATLSCRASQSVSSSYLAWYQQKPGQAPRLLIYGASNRATGIPDRFSGSGSGTDFTLTISRLEPEDFAVYYCQQVYSSPYTFGGGTKVEIK
notes: IgG; also called SB-8 (p)
As for B4, the FOB in [10] worked out at 4.1 fold over background; in [11], 1.7 fold over background; in the experiment with human SIRPα on cells [12], 2.1 fold over background; with mouse SIRPα on cells [13], 1.2 fold over background; in [6], 2 fold over background; in experiment [7], 2 fold over background. Besides, the FOB in the experiment with human SIRPα on cells [8] was found to be 1 fold over background. Further, the binding result in experiment [1] was “no binding (tested: 1 ug/ml)”; in the experiment with mouse SIRPα on cells [14], “no binding (tested: 1 ug/ml)”; in experiment [9] it was “no binding (tested: 1 ug/mL)”; in the experiment with mouse SIRPα D1-Fc, “no binding (tested: 100 nM)”. Besides, the EC50 in experiment [4] is 0.022 nM; in [5], 0.441 nM. Further, in [15], the dissociation constant Kd (commonly the constant that tells how readily two partners part at equilibrium) came to 2.72 nM.

B5: SB-1-3 (antibody, V domains shown)
VH: EVQLVESGGGLVKPGGSLRLSCAASGFTFSAYGMNWVRQAPGKGLEWVSAITSSGRSTYYADSVKGRFTISRDNSKNTLYLQMNSLRAEDTAVYYCAKDFTEVVGWLGMDVWGQGTTVTVSS
VL: EIVMTQSPGTLSLSPGERATLSCRASQSVSSSYLAWYQQKPGQAPRLLIYGASSRATGIPDRFSGSGSGTDFTLTISRLEPEDFAVYYCQLLGSSPRTFGGGTKVEIK
notes: IgG
In the case of B5, the binding result is on record as “no binding (tested: 1 ug/ml)” in experiment [1], “no binding (tested: 100 nM)” in [3], “no binding (tested: Log nM about 0.8 (about 7 nM))” with human SIRPα on cells [16] and “no binding (tested: Log nM about 1.8 (about 60 nM))” with SIRPγ on Jurkat cells. For the same molecule, the EC50 in experiment [5] came to 0.062 nM; in experiment [17], 0.0284 nM. Further, the FOB in [6] came out at 4 fold over background; in [7], 2 fold over background; with human SIRPα on cells [8] it was 0 fold over background.

B6: SB-8-15 (antibody, V domains shown)
VH: QVQLQESGPGLVKPSETLSLTCAVSGYSISAHYYWGWIRQPPGKGLEWIGSIYQSGHTYYNPSLKSRVTISVDTSKNQFSLKLSSVTAADTAVYYCARGGAMTPAGMDVWGQGTTVTVSS
VL: EIVMTQSPGTLSLSPGERATLSCRASQSVSSSYLAWYQQKPGQAPRLLIYGASNRATGIPDRFSGSGSGTDFTLTISRLEPEDFAVYYCQQVYSSPYTFGGGTKVEIK
notes: IgG
In the case of B6, the binding result in [1] is “no binding (tested: 1 ug/ml)”; in experiment [3], “no binding (tested: 100 nM)”; in the experiment with human SIRPα on cells [16], “no binding (tested: Log nM about 0.8 (about 7 nM))”; with SIRPγ on Jurkat cells it was “no binding (tested: Log nM about 1.8 (about 60 nM))”. The results for the concentration for a half-maximal effect (EC50) in experiment [5] and in experiment [17] were 0.737 nM and 0.596 nM, respectively. For the same molecule, the FOB was determined as 7 fold over background in experiment [6], 1 fold over background in experiment [7] and 1 fold over background with human SIRPα on cells [8].

B7: 18D5 (antibody, V domains shown)
VH: QVQLQQPGAELVRPGSSVKLSCKASGYTFTSYWVHWVKQRPIQGLEWIGNIDPSDSDTHYNQKFKDKASLTVDKSSSTAYMQLSSLTFEDSAVYYCVRGGTGTMAWFAYWGQGTLVTVSA
VL: DVVMTQTPLSLPVSLGDQASISCRSSQSLVHSYGNTYLYWYLQKPGQSPKLLIYRVSNRFSGVPDRFSGSGSGTDFTLKISRVEAEDLGVYFCFQGTHVPYTFGSGTKLEIK
Take B7: the EC50 (read off the curve) – broadly, the concentration that produces a half-maximal response – in the experiment with human SIRPα on cells [16] is ~0.2 nM. In [17], this molecule gave an EC50 of 0.477 nM.

The record behind these values is patent US20250026827A1 (Alector, published 2025).
